The record followed here is publication PMC4948773, “Identification of Preferred DNA-Binding Sites for the Thermus thermophilus Transcriptional Regulator SbtR by the Combinatorial Approach REPSA” (PLoS ONE, 2016).

The labels stand for the following.
B1: m1 (dsDNA)
DNA 1: CTAGGAATTCGTGCAGAGGTGAATAGACTGGCCAGTCATTACCATCCCTCCAGAAGCTTGGAC
DNA 2: GTCCAAGCTTCTGGAGGGATGGTAATGACTGGCCAGTCTATTCACCTCTGCACGAATTCCTAG
B2: m3 (dsDNA)
DNA 1: B1 DNA 1 with A25T, A27T
DNA 2: B1 DNA 2 with T37A, T39A
B3: m4 (dsDNA)
DNA 1: B1 DNA 1 with A25T, C28G
DNA 2: B1 DNA 2 with G36C, T39A
B4: m7 (dsDNA)
DNA 1: B1 DNA 1 with A25T, G31C
DNA 2: B1 DNA 2 with C33G, T39A
B5: m5 (dsDNA)
DNA 1: B1 DNA 1 with A25T, T29A
DNA 2: B1 DNA 2 with A35T, T39A
B6: m2 (dsDNA)
DNA 1: B1 DNA 1 with A25T, G26C
DNA 2: B1 DNA 2 with C38G, T39A
B7: m6 (dsDNA)
DNA 1: B1 DNA 1 with A25T, G30C
DNA 2: B1 DNA 2 with C34G, T39A
B8: SbtR, transcriptional regulator encoded by the Thermus thermophilus HB8 TTHA0167 gene (natural protein, UniProt Q5SLX6 1-189, looked up)
chain: MAAMITPPGAGVKDKKRAILEATLAVLRERGLSGLKMEEVARRAEVGKGTIYLYFRDKRDLLKALVEERTWAFYREVEEVVRRKAPFFVRLEEVLRRRLAWVQEWRGLWAAVAREAMDDPTPWLKGLHEHYLRLLEELLRSGQSEGAVRTGLSPRATAAVIAAMGCTPSLEVEAYLEHLMEVLRKGVEP
modifications: intermolecular disulfide bond (disulfide-linked dimeric species)
notes: SbtR, TetR/AcrR family transcriptional regulator, Thermus thermophilus HB8, TTHA0167 (sbtR) gene in pET-11a; 189 amino acid residues, 21,539 Da; called wild-type SbtR; It says the plasmid holds the TTHA0167 gene and reckons the stock concentration from the 189-residue protein; also called SbtR2; SbtR dimer; source: E. coli BL21(DE3) with pET-sbtR, IPTG-induced; soluble extract heated at 70°C for …
B9: SbtR mini probe 22-bp (dsDNA)
DNA 1: GCCCTGACTGGCCAGTCACCCG
DNA 2: CGGGTGACTGGCCAGTCAGGGC

Numbering of substitutions follows the chain as printed.

In one series the target is T1, SbtR (Thermus thermophilus HB8, UniProt Q5SLX6 1-189).
T1 sequence: B8 chain
Put plainly: BLI; EMSA/REPA: 50 mM K acetate, 20 mM Tris acetate, 10 mM Mg acetate, BSA (CutSmart), pH 7.9, binding 55 C 20 min (REPA cleavage 37 C); BLI: 20 mM Tris-Cl pH 7.7, 100 mM NaCl, 1 mM EDTA, 0.05% Tween 20, 30 C (hydration step; binding temperature not separately stated); concentrations as SbtR dimer. To be noted: protein: recombinant; tags: none stated (pET-11a, wild-type); chain copies: 2; label: 5' biotin-dT on strand 2 (extra 5' T in primer). For orientation: In BLI a coated tip is dipped into the sample, and binding shifts an interference pattern.
For B1, the Kd amounted to 0.551 nM.
With B2, the Kd is 2.18 nM.
The same measure, in the same setting: the figure for B3 is 1.24 nM.
Same read-out and setting: then B4, with 0.839 nM.
On the same count and under the same terms, the figure for B5 is 15.5 nM.
For the molecule B6, the Kd came out at 7.11 nM.
The same measure, in the same setting: then B7, with 0.159 nM.

The next series concerns the molecule itself. The experiment in a line: SDS-PAGE with and without reductant; Coomassie-stained 4-20% SDS-PAGE gradient gel; purified SbtR loaded under standard reducing conditions or under oxidizing conditions (Laemmli loading buffer lacking reductant).
Conditions: not given
Turning to B8, the stoichiometry N (usually a count of units in the complex or per binding partner) came out at 2.

The next series concerns the target T1, SbtR. The experiment in a line: EMSA; S1 complex, apparent; EMSA/REPA: 50 mM K acetate, 20 mM Tris acetate, 10 mM Mg acetate, BSA (CutSmart), pH 7.9, binding 55 C 20 min (REPA cleavage 37 C); BLI: 20 mM Tris-Cl pH 7.7, 100 mM NaCl, 1 mM EDTA, 0.05% Tween 20, 30 C (hydration step; binding temperature not separately stated); concentrations as SbtR dimer. Particulars: protein: recombinant; tags: none stated (pET-11a, wild-type); chain copies: 2; label: 5' IRDye700 on strand 1; blunt. (Mobility shift assays separate free from complexed probe on a gel.)
B9: the Kd amounted to 5 nM.
